{
  "source": "patent US20200123233A1",
  "about": "(published 2020)",
  "binders": {"B1": {"name": "RSVNC23 (VHH)", "VHH": "EVQLVESGGGLVQPGGSLRLSCAASGRTFSSIAMGWFRQAPGKEREFVAAISWSRGRTFYADSVKGRFIISRDDAANTAYLQMNSLKPEDTAVYYCAVDTASWNSGSFIYDWAYDHWGQGTQVTVSS"}, "B2": {"name": "LG191D3 (VHH)", "VHH": "EVQLVESGGGLVQAGGSLRLSCEASGRTYSRYGMGWFRQAPGKEREFVAAVSRLSGPRTVYADSVKGRFTISRDNAENTVYLQMNSLKPEDTAVYTCAAELTNRNSGAYYYAWAYDYWGQGTQVTVSS"}, "B3": {"name": "1E4 (VHH)", "VHH": "B2 VHH with Y29F, R31S, S106P, A112T"}, "B4": {"name": "RSVPMP7B2 (VHH)", "VHH": "EVQLVESGGGLVQAGDSLRLSCAASGRTFSSYAMGWFRQAPGKEREFVAAISWSDGSTYYADSVKGRFTISRDNAKNTVYLQMNSLKPEDTAVYYCAADLTSTNPGSYIYIWAYDYWGQGTQVTVSS"}, "B5": {"name": "RSVPMP15B3 (VHH)", "VHH": "EVQLVESGGGLVQPGGSLRLSCAASGLTLDYYALGWFRQAPGKEREGVSCISSSDHSTTYTDSVKGRFTISWDNAKNTLYLQMNSLKPGDTAVYYCAADPALGCYSGSYYPRYDYWGQGTQVTVSS"}, "B6": {"name": "LG191E4 (VHH)", "VHH": "EVQLVESGGGLVQAGGSLRLSCAASGPTFSADTMGWFRQAPGKEREFVATIPWSGGIAYYSDSVKGRFTMSRDNAKNTVDLQMNSLKPEDTALYYCAGSSRIYIYSDSLSERSYDYWGQGTQVTVSS"}, "B7": {"name": "RSVNC41 (VHH)", "VHH": "EVQLVESGGGLVQAGGSLSISCAASGGSLSNYVLGWFRQAPGKEREFVAAINWRGDITIGPPNVEGRFTISRDNAKNTGYLQMNSLAPDDTAVYYCGAGTPLNPGAYIYDWSYDYWGRGTQVTVSS"}, "B8": {"name": "IV131 (VHH)", "VHH": "QVQLQQSGGGLVQAGGSLRLSCAASGSGFSFNPMGWYRQAPGKQRELVASITSGGTTNYVDSVKGRFTISRGNAKNTVYLQMNSLKPEDTAVYYCAAEGPRRRGSTWYTDNYWGQGTQVTVSS", "notes": "yeast-produced"}, "B9": {"name": "IV25 (VHH)", "VHH": "QVQLQQSGGGLVQSGGSLSLSCAASGITLNNRVVGWFRQAPGKEREFVGRIMWSVGDTFYARSVKGRFTISRDNAKNTMYLQMNALKPEDTAVYYCAAARDPDLYTGQYEYWGQGTQVTVSS", "notes": "yeast-produced"}, "B10": {"name": "IV133 (VHH)", "VHH": "QVQLQQSGGGLVQPGGSLRLSCAASSSGFSFNPMGWYRQAPGKQRELVATMTSGGTTNYADSVKGRFTISRDNAKTTVYLQMNSLKPEDTAVYYCNARGPRRATTGWITDDYWGQGTQVTVSS", "notes": "yeast-produced"}, "B11": {"name": "IV156 (VHH)", "VHH": "B10 VHH with S26R, M51I, R71T, Y79F, A97G, A103G, T105A, I108F", "notes": "yeast-produced"}, "B12": {"name": "IV157 (VHH)", "VHH": "B10 VHH with S26R, G28D, F29I, M51I, T52S, S53N, R71Q, A97G, R102Y, I108Y", "notes": "yeast-produced"}, "B13": {"name": "IV144 (VHH)", "VHH": "QVQLQQSGGGLVQAGGSLRLSCAASGNIISFNPMGWHRQAPGKQRELVASITSGGSISYVDSVKGRFTISRDSAKNTIYLQMNSLKPEDTAVYFCAGEGPRRRGSTWYTDTYWGQGTQVTVSS", "notes": "yeast-produced"}, "B14": {"name": "PMP1E5 (VHH)", "VHH": "EVQLVESGGGLVQAGGSLRLSCEASGRTFSPIAMGWFRQAPGKEREFVAVVTRWSGARTVYADSVKGRFTISRDNAENTVYLQMNSLKPEDTAVYTCAADSTNRNSGAIYYTWAYDYWGQGTQVTVSS"}, "B15": {"name": "PMP1G3 (VHH)", "VHH": "B2 VHH"}, "B16": {"name": "PMP20B2 (VHH)", "VHH": "B14 VHH with P31S, I32Y, A33D, V50A, T59G, Y81H, I109V"}, "B17": {"name": "PMP20C1 (VHH)", "VHH": "EVQLVESGGGLVQAGGSLRLSCAASGRTFSSFAMGWFRQAPGKEREFVAAISWSGGSTYYADSVKGRFTISGDNAKNTMYLQMNSLKPEDTAVYYCAADSEILNSGAYYYPWAYVYWGQGTQVTVSS"}, "B18": {"name": "PMP19C4 (VHH)", "VHH": "EVQLVESGGGLVQAGGSLRLSCAASGRSFSNYVLGWFRQAPGKEREFVAAISFRGDSAIGAPSVEGRFTISRDNAKNTGYLQMNSLVPDDTAVYYCGAGTPLNPGAYIYDWSYDYWGRGTQVTVSS"}, "B19": {"name": "PMP7B2 (VHH)", "VHH": "B4 VHH"}, "B20": {"name": "PMP1A6 (VHH)", "VHH": "EVQLVESGGGLVQAGGSLRLSCAASGRTFSSYAMGWFRQAPGKEREFVAAIWWSGGSTYYADSVKGRFTMSRDNAKNTVYLEMNNLKPEDTAVYYCAADTDSSNSGSYLYTWAYDYWGQGTQVTVSS"}, "B21": {"name": "PMP1G8 (VHH)", "VHH": "EVQLVESGGGSVQAGGSLRLSCAASGGSFNRFGMGWFRRAPGKERDFVAAINLSGDTTYYVDSVQGRFTISRDNANNIMYLQMNLLKPEDTADYYCAADPDPITAWKQSGAGMDYWGKGTQVTVSS"}},
  "note": "Substitutions are numbered along the chain they refer to.",
  "data": [
    {"biological_target": "F protein of RSV Long (RSV LONG M-2) (human respiratory syncytial virus, …, UniProt P12568 26-574)", "assay": "cell-based or functional assay", "units": {"RSV neutralization IC50 (nM) (n = 2), Long": "nM"}, "values": [
      {"binder": "B1", "RSV neutralization IC50 (nM) (n = 2), Long": 144},
      {"binder": "B2", "RSV neutralization IC50 (nM) (n = 2), Long": 253},
      {"binder": "B3", "RSV neutralization IC50 (nM) (n = 2), Long": 380},
      {"binder": "B4", "RSV neutralization IC50 (nM) (n = 2), Long": 91}
    ]},
    {"biological_target": "F protein of RSV A-2 (human respiratory syncytial virus, …, UniProt P03420 26-574)", "assay": "cell-based or functional assay", "units": {"RSV neutralization IC50 (nM) (n = 2), A-2": "nM"}, "values": [
      {"binder": "B1", "RSV neutralization IC50 (nM) (n = 2), A-2": 109},
      {"binder": "B2", "RSV neutralization IC50 (nM) (n = 2), A-2": 227},
      {"binder": "B3", "RSV neutralization IC50 (nM) (n = 2), A-2": 298},
      {"binder": "B4", "RSV neutralization IC50 (nM) (n = 2), A-2": 177}
    ]},
    {"biological_target": "F protein of RSV B-1 (human respiratory syncytial virus, …, UniProt P13843 26-574)", "assay": "cell-based or functional assay", "units": {"RSV neutralization IC50 (nM) (n = 2), B1": "nM"}, "values": [
      {"binder": "B5", "RSV neutralization IC50 (nM) (n = 2), B1": 1270},
      {"binder": "B4", "RSV neutralization IC50 (nM) (n = 2), B1": 2690},
      {"binder": "B6", "RSV neutralization IC50 (nM) (n = 2), B1": 4330}
    ]},
    {"biological_target": "T1, FTM-NN protein (membrane anchorless form of the Long fusion protein, 70 kDa) (human respiratory syncytial virus, …, UniProt P12568 26-524)", "T1 construct": "domain: membrane anchorless form of the fusion protein", "assay": "SPR (Biacore), FTM-NN immobilised", "units": {"Kd": "nM", "koff": "s⁻¹", "kon": "M⁻¹ s⁻¹"}, "values": [
      {"binder": "B1", "Kd": 0.92, "koff": 0.00074, "kon": 800000},
      {"binder": "B2", "Kd": 1.9, "koff": 0.0028, "kon": "1.5e+06"},
      {"binder": "B5", "Kd": 0.67, "koff": 0.00027, "kon": 410000},
      {"binder": "B7", "Kd": 8.1, "koff": 0.0067, "kon": 820000},
      {"binder": "B4", "Kd": 1.1, "koff": 0.00065, "kon": 570000},
      {"binder": "B6", "Kd": 0.27, "koff": 0.00015, "kon": 570000}
    ]},
    {"biological_target": "authentic influenza antigen of A/PR/8/34 (ATCC VR-1469), H1N1 (influenza A virus A/PR/8/34 (H1N1), UniProt P03452 18-565)", "assay": "ELISA on coated authentic influenza antigen", "values": [
      {"binder": "B8", "binding result": "no binding (tested: 10 µg/ml)"},
      {"binder": "B9", "binding result": "no binding (tested: 10 µg/ml)"},
      {"binder": "B10", "binding result": "no binding (tested: 10 µg/ml)"},
      {"binder": "B11", "binding result": "no binding (tested: 10 µg/ml)"},
      {"binder": "B12", "binding result": "no binding (tested: 10 µg/ml)"},
      {"binder": "B13", "binding result": "no binding (tested: 10 µg/ml)"}
    ]},
    {"biological_target": "hRSV (inactivated hRSV strain Long, Hytest #8RSV79), F protein on virus particles (human respiratory syncytial virus, …, UniProt P12568 26-574)", "assay": "binding ELISA on coated hRSV (Hytest), anti-VHH detection", "units": {"EC50": "nM"}, "values": [
      {"binder": "B1", "EC50": 0.1},
      {"binder": "B2", "EC50": 0.15},
      {"binder": "B5", "EC50": 0.058},
      {"binder": "B7", "EC50": 0.41},
      {"binder": "B4", "EC50": 0.09},
      {"binder": "B6", "EC50": 0.083}
    ]},
    {"biological_target": "FTM-NN protein (membrane anchorless form of the Long fusion protein, 70 kDa) (human respiratory syncytial virus, …, UniProt P12568 26-524)", "assay": "binding ELISA, periplasmic extract on immobilised antigen", "units": {"Binding RSV-A, Fold blanc": "fold over blank"}, "values": [
      {"binder": "B14", "Binding RSV-A, Fold blanc": 3.4},
      {"binder": "B15", "Binding RSV-A, Fold blanc": 3.4},
      {"binder": "B16", "Binding RSV-A, Fold blanc": 3},
      {"binder": "B17", "Binding RSV-A, Fold blanc": 2.7},
      {"binder": "B18", "Binding RSV-A, Fold blanc": 2.5},
      {"binder": "B19", "Binding RSV-A, Fold blanc": 4.7},
      {"binder": "B20", "Binding RSV-A, Fold blanc": 4.2},
      {"binder": "B21", "Binding RSV-A, Fold blanc": 3.7}
    ]},
    {"biological_target": "T1, FTM-NN protein (membrane anchorless …)", "assay": "competition ELISA on coated FTM-NN; competitor biotinylated Synagis Fab", "units": {"EC50": "nM"}, "values": [
      {"binder": "B1", "EC50": 2.3},
      {"binder": "B2", "EC50": 5.9},
      {"binder": "B7", "EC50": 32},
      {"binder": "B4", "EC50": 1.9}
    ]}
  ]
}
